Assay results: patent US20060234285A1 (Human Genome Sciences, published 2006)

B9: TNFR-6 alpha-Fc fusion protein (full length TNFR-6 alpha, amino acids 1-300 of SEQ ID NO:2, fused to the Fc domain of human IgG1) (Fc fusion, not shown: a dimerising Fc or GST)
chain: VAETPTYPWRDAETGERLVCAQCPPGTFVQRPCRRDSPTTCGPCPPRHYTQFWNYLERCRYCNVLCGEREEEARACHATHNRACRCRTGFFAHAGFCLEHASCPPGAGVIAPGTPSQNTQCQPCPPGTFSASSSSSEQCQPHRNCTALGLALNVPGSSSHDTLCTSCTGFPLSTRVPGAEECERAVIDFVAFQDISIKRLQRLLQALEAPEGWGPTPRAGRAALQLKLRRRLTELLGAQDGALLVRLLQALRVARMPGLERSVRERFLPVH
B11: Soluble human FLAG-FasL (synthesized at HGS) (ligand, UniProt P48023 130-281, looked up, not shown: small tags and cut ends)
chain: QIGHPSPPPEKKELRKVAHLTGKSNSRSMPLEWEDTYGIVLLSGVKYKKGGLVINETGLYFVYSKVYFRGQSCNNLPLSHKVYMRNSKYPQDLVMMEGKMMSYCTTGQMWARSSYLGAVFNLTSADHLYVNVSELSLVNFEESQTFFGLYKL
notes: called trimerized in the kinetic BIAcore run; cross-linked with FLAG antibody in the cell assays; also called FasL-Flag; trimerized FLAG-FasL

Legend:
[1] = molecular target: T1, TNF-gamma-beta, full length, on transfected cells (human, UniProt O95150 1-251); assay: flow cytometry on HEK293F cells expressing full length TNF-gamma-beta
T1 construct: whole, on cells; also called TL1β
T1 sequence (looked up): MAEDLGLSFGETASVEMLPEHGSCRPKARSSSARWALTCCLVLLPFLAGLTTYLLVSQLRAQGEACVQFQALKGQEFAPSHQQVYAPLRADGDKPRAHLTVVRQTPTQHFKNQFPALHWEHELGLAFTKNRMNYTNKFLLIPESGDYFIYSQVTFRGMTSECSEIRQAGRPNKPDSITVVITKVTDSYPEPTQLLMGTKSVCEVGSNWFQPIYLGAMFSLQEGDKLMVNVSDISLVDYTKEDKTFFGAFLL
Experimental: One million cells, in 0.1 ml of FACS buffer (PBS, 0.1% BSA, 0.1% NaN₃), were incubated with 0.1-1 microgram of protein or antibody at RT for 15 min. The cells were washed with 3 ml of FACS buffer, reacted with biotinylated primary antibody, and stained with PE-conjugated secondary antibody at RT for 15 min. Cells were then washed again, resuspended in 0.5 microgram/ml of propidium iodide, and live cells were gated and analyzed on a FACScan using the CellQuest software (BD Biosciences).

[2] = molecular target: B9; assay: BIAcore
TNFR-6 alpha-(His) = molecular target: T2, TNFR-6 alpha-(His) (human, UniProt O95407 30-300); assay: flow cytometry on AIM-II-transfected HEK 293 EBNA cells
T2 construct: also called TNFR-6α; DcR3
T2 sequence: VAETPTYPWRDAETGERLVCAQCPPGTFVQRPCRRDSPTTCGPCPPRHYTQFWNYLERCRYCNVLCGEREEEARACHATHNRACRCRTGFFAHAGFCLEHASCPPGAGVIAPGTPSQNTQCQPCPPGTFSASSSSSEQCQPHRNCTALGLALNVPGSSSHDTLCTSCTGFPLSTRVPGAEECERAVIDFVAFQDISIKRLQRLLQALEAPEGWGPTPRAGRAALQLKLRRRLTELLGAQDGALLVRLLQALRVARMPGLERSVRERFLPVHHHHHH

[3] = molecular target: T3, sFas ligand (Alexis Corporation) with a FLAG epitope tag at its N-terminus (human, UniProt P48023 103-281); assay: cell-based or functional assay
T3 sequence (looked up): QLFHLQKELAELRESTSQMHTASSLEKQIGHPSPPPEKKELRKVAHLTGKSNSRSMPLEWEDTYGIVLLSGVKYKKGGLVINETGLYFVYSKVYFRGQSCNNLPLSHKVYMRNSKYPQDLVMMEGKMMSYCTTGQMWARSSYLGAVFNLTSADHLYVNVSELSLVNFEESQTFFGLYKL

[4] = molecular target: B11; assay: cell-based or functional assay
[5] = molecular target: T4, Murine FasL on transfected murine L929 cells (murine, UniProt P41047 1-279); assay: cell-based or functional assay
T4 sequence (looked up): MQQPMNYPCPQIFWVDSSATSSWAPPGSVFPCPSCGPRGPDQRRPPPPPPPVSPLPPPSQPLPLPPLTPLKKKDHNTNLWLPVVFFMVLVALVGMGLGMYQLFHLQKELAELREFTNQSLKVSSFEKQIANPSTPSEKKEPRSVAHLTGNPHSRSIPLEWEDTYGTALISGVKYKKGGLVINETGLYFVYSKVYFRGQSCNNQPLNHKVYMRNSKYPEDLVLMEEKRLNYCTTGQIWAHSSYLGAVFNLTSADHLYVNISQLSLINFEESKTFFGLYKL

[6] = molecular target: B9; assay: BIAcore, TR6-Fc immobilized, trimerized FLAG-FasL soluble
[7] = molecular target: T5, Full-length human TR6 (without Fc) (human, UniProt O95407 30-300); assay: BIAcore, FasL-Flag soluble
T5 construct: Full-length cDNA expressed in Sf9 cells with the natural leader; also called TR6 non-Fc; TR6-non-Fc
T5 sequence: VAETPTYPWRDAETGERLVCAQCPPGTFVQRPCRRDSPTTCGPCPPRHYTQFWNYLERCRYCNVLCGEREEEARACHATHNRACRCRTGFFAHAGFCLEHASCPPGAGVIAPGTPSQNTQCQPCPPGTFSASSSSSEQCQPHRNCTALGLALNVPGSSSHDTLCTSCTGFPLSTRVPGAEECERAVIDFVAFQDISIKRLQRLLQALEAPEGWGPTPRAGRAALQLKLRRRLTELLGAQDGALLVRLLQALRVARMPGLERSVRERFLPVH

[8] = molecular target: T6, FLAG-tagged soluble form of TNF-gamma-beta (aa 72-251) (human, UniProt O95150 72-251); assay: coimmunoprecipitation with protein A-Sepharose, anti-Flag western blot
T6 construct: also called FLAG-TL1β; FLAG-TNF-gamma-beta
T6 sequence (looked up): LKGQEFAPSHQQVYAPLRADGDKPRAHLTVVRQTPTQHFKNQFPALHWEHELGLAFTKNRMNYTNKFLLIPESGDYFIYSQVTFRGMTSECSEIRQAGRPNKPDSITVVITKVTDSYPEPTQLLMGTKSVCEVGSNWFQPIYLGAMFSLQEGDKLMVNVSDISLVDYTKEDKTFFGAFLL
From the text: The beads were then precipitated and washed extensively with PBST buffer (PBS, 0.5% Triton X-100) before boiled in SDS-sample buffer. Proteins were resolved on 4-20% Tris-Glycine gels (NOVEX), transferred to nitrocellulose membranes, and blotted with anti-Flag M2 monoclonal antibody (1 microgram/ml, Sigma) and horseradish peroxidase (HRP)-conjugated goat anti-mouse IgG antibody (0.5 microgram/ml).

B1: TNFR1-Fc (Fc fusion, UniProt P19438 30-211, looked up, not shown: a dimerising Fc or GST)
chain: LVPHLGDREKRDSVCPQGKYIHPQNNSICCTKCHKGTYLYNDCPGPGQDTDCRECESGSFTASENHLRHCLSCSKCRKEMGQVEISSCTVDRDTVCGCRKNQYRHYWSENLFQCFNCSLCLNGTVHLSCQEKQNTVCTCHAGFFLRENECVSCSNCKKSLECTKLCLPQIENVKGTEDSGTT
notes: extracellular domain; also called TNFRLFc
- binding result [1]: no binding

B2: Extra-cellular portion of FasL (Oncogene Research Products), amino acids 103-281 (ligand, human, UniProt P48023 103-281, looked up)
chain: QLFHLQKELAELRESTSQMHTASSLEKQIGHPSPPPEKKELRKVAHLTGKSNSRSMPLEWEDTYGIVLLSGVKYKKGGLVINETGLYFVYSKVYFRGQSCNNLPLSHKVYMRNSKYPQDLVMMEGKMMSYCTTGQMWARSSYLGAVFNLTSADHLYVNVSELSLVNFEESQTFFGLYKL
notes: range 103-281; Immobilised on a BIAcore chip (2020 RU); also called immobilized FasL
- binding result [2]: binds

B3: OPG-Fc (Fc fusion, UniProt O00300 22-201, looked up, not shown: a dimerising Fc or GST)
chain: ETFPPKYLHYDEETSHQLLCDKCPPGTYLKQHCTAKWKTVCAPCPDHYYTDSWHTSDECLYCSPVCKELQYVKQECNRTHNRVCECKEGRYLEIEFCLKHRSCPPGFGVVQAGTPERNTVCKRCPDGFFSNETSSKAPCRKHTNCSVFGLLLTQKGNATHDNICSGNSESTQKCGIDVTL
notes: extracellular domain
- binding result [1]: no binding

B4: DcR1-Fc (Fc fusion, UniProt O14798 26-236, looked up, not shown: a dimerising Fc or GST)
chain: ATTARQEEVPQQTVAPQQQRHSFKGEECPAGSHRSEHTGACNPCTEGVDYTNASNNEPSCFPCTVCKSDQKHKSSCTMTRDTVCQCKEGTFRNENSPEMCRKCSRCPSGEVQVSNCTSWDDIQCVEEFGANATVETPAAEETMNTSPGTPAPAAEETMNTSPGTPAPAAEETMTTSPGTPAPAAEETMTTSPGTPAPAAEETMITSPGTPA
notes: extracellular domain
- binding result [1]: no binding

B5: DcR2-Fc (Fc fusion, UniProt Q9UBN6 56-211, looked up, not shown: a dimerising Fc or GST)
chain: ATIPRQDEVPQQTVAPQQQRRSLKEEECPAGSHRSEYTGACNPCTEGVDYTIASNNLPSCLLCTVCKSGQTNKSSCTTTRDTVCQCEKGSFQDKNSPEMCRTCRTGCPRGMVKVSNCTPRSDIKCKNESAASSTGKTPAAEETVTTILGMLASPYH
notes: extracellular domain
- binding result [1]: no binding

B6: RANK-Fc (Fc fusion, UniProt Q9Y6Q6 30-212, looked up, not shown: a dimerising Fc or GST)
chain: IAPPCTSEKHYEHLGRCCNKCEPGKYMSSKCTTTSDSVCLPCGPDEYLDSWNEEDKCLLHKVCDTGKALVAVVAGNSTTPRRCACTAGYHWSQDCECCRRNTECAPGLGAQHPLQLNKDTVCKPCLAGYFSDAFSSTDKCRPWTNCTFLGKRVEHHGTEKSDAVCSSSLPARKPPNEPHVYLP
notes: extracellular domain
- binding result [1]: no binding

B7: AIM-II, full sequence, on stably transfected HEK 293 EBNA cells (ligand, UniProt O43557 1-240, looked up)
chain: MEESVVRPSVFVVDGQTDIPFTRLGRSHRRQSCSVARVGLGLLLLLMGAGLAVQGWFLLQLHWRLGEMVTRLPDGPAGSWEQLIQERRSHEVNPAAHLTGANSSLTGSGGPLLWETQLGLAFLRGLSYHDGALVVTKAGYYYIYSKVQLGGVGCPLGLASTITHGLYKRTPRYPEELELLVSQQSPCGRATSSSRVWWDSSFLGGVVHLEAGEKVVVRVLDERLVRLRDGTRSYFGAFMV
notes: whole, on cells
- binding result (TNFR-6 alpha-(His)): binds

B8: AITR-Fc (Fc fusion, UniProt Q9Y5U5 26-162, looked up, not shown: a dimerising Fc or GST)
chain: QRPTGGPGCGPGRLLLGTGTDARCCRVHTTRCCRDYPGEECCSEWDCMCVQPEFHCGDPCCTTCRHHPCPPGQGVQSQGKFSFGFQCIDCASGTFSGGHEGHCKPWTDCTQFGFLTVFPGNKTHNAVCVPGSPPAEP
notes: extracellular domain
- binding result [1]: no binding

Binder: B9
- IC50 (read off the curve): TR6Fc concentration giving half rescue of Jurkat viability from sFasL 20 ng (Alamar blue, OD 570 nm - 630 nM) [3]: ~5 ng/mL
- potency against FasL-induced Jurkat cytotoxicity relative to Fas-Fc [4]: 100 fold
- IC50 of inhibition of killing of A20 target cells by murine FasL-transfected L929 cells [5]: ~1 ng/mL

B10: OX40-Fc (Fc fusion, UniProt P43489 29-214, looked up, not shown: a dimerising Fc or GST)
chain: LHCVGDTYPSNDRCCHECRPGNGMVSRCSRSQNTVCRPCGPGFYNDVVSSKPCKPCTWCNLRSGSERKQLCTATQDTVCRCRAGTQPLDSYKPGVDCAPCPPGHFSPGDNQACKPWTNCTLAGKHTLQPASNSSDAICEDRDPPATQPQETQGPPARPITVQPTEAWPRTSQGPSTRPVEVPGGRA
notes: extracellular domain
- binding result [1]: no binding

Binder: B11
- Kd [6]: 4.6 nM
- Kd [7]: 17 nM

B12: TACI-Fc (extracellular domain of human TAC1, aa 1-159, fused to the Fc domain of human IgG1) (Fc fusion, UniProt O14836 1-159, looked up, not shown: a dimerising Fc or GST)
chain: MSGLGRSRRGGRSRVDQEERFPQGLWTGVAMRSCPEEQYWDPLLGTCMSCKTICNHQSQRTCAAFCRSLSCRKEQGKFYDHLLRDCISCASICGQHPKQCAYFCENKLRSPVNLPPELRRQRSGEVENNSDNSGRYQGLEHRGSEASPALPGLKLSADQ
notes: range 1-159; also called TAC1-Fc
- binding result [8]: no binding
- binding result [1]: no binding
